Data from patent US20250277059A1, “ANTIBODY USED TO TREAT CORONAVIRUS INFECTION” (priority 2022, published 2025).

target: human TMPRSS2 (Homo sapiens, UniProt O15393); assay: BIACore binding assay of anti-TMPRSS2 antibodies; conditions: Table 8, recombinant and humanized antibodies
Sequence (O15393 106-492 limits assumed): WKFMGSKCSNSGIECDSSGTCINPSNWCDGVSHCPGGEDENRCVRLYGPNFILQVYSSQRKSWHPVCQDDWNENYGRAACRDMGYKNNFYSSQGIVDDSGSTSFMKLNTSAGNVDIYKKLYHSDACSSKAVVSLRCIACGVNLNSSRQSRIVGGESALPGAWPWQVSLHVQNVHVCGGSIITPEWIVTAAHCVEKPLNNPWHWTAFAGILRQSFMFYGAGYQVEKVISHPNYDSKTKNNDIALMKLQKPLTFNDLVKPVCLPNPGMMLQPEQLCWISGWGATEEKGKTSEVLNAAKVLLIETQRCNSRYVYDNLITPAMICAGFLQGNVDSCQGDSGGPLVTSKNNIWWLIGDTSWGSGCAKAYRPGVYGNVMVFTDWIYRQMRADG

Molecule | ka [M⁻¹ s⁻¹] | kd [s⁻¹]
humanized 2228-15 IgG4 (S108P) prototype #1: humanized 2228 antibody, 2228_hVH-1 (SEQ ID NO: 144) and 2228_hVL-1 (SEQ ID NO: 134), human IgG4 (S108P) (antibody, V domains shown, human IgG4 S108P constant region) VH: QVQLVQSGAEVKKPGASVKVSCKASGYTFTDYYINWVRQAPGQGLEWMGWIFPGSGSSYYNAIFKGRVTMTRDTSISTAYMELSRLRSDDTAVYYCARGDFGNFGGFFTYWGQGTLVTVSS VL: DVVMTQSPLSLPVTLGQPASISCRASKSVSTSGYSFMHWFQQRPGQSPRRLIYLASNLESGVPDRFSGSGSGTDFTLKISRVEAEDVGVYYCQHSRELPLTFGGGTKVEIK | 5.22e+06 | 0.0641
humanized 2228-15 IgG4 (S108P) prototype #2: humanized 2228 antibody, 2228_hVH-1 (SEQ ID NO: 144) and 2228_hVL-2 (SEQ ID NO: 139), human IgG4 (S108P) (antibody, V domains shown, human IgG4 S108P constant region) VH: QVQLVQSGAEVKKPGASVKVSCKASGYTFTDYYINWVRQAPGQGLEWMGWIFPGSGSSYYNAIFKGRVTMTRDTSISTAYMELSRLRSDDTAVYYCARGDFGNFGGFFTYWGQGTLVTVSS VL: DIVMTQSPDSLAVSLGERATINCRASKSVSTSGYSFMHWYQQKPGQPPKLLIYLASNLESGVPDRFSGSGSGTDFTLTIRPLQAEDVAVYYCQHSRELPLTFGQGTKLEIK | 731000 | 0.001039
humanized 2228-15 IgG4 (S108P) prototype #3: humanized 2228 antibody, 2228_hVH-2 (SEQ ID NO: 149) and 2228_hVL-1 (SEQ ID NO: 134), human IgG4 (S108P) (antibody, V domains shown, human IgG4 S108P constant region) VH: EIQLVQSGAEVKKPGSSVKVSCKASGYTFTDYYINWMRQAPGQGLEWIGWIFPGSGSSYYNAIFKGRATLTVDTSTNTAYMELSSLRSEDTAFYFCARGDFGNFGGFFTYWGQGTLVTVSS VL: DVVMTQSPLSLPVTLGQPASISCRASKSVSTSGYSFMHWFQQRPGQSPRRLIYLASNLESGVPDRFSGSGSGTDFTLKISRVEAEDVGVYYCQHSRELPLTFGGGTKVEIK | 825000 | 0.000774
humanized 2228-15 IgG4 (S108P) prototype #4: humanized 2228 antibody, 2228_hVH-2 (SEQ ID NO: 149) and 2228_hVL-2 (SEQ ID NO: 139), human IgG4 (S108P) (antibody, V domains shown, human IgG4 S108P constant region) VH: EIQLVQSGAEVKKPGSSVKVSCKASGYTFTDYYINWMRQAPGQGLEWIGWIFPGSGSSYYNAIFKGRATLTVDTSTNTAYMELSSLRSEDTAFYFCARGDFGNFGGFFTYWGQGTLVTVSS VL: DIVMTQSPDSLAVSLGERATINCRASKSVSTSGYSFMHWYQQKPGQPPKLLIYLASNLESGVPDRFSGSGSGTDFTLTIRPLQAEDVAVYYCQHSRELPLTFGQGTKLEIK | 1.44e+06 | 0.0001
humanized 752-1 IgG4 (S108P) prototype #1: humanized 752 antibody, 752_hVH-1 (SEQ ID NO: 124) and 752_hVL-1 (SEQ ID NO: 114), human IgG4 (S108P) (antibody, V domains shown, human IgG4 S108P constant region) VH: QVQLVQSGAEVKKPGASVKVSCKASGYTFTSCGISWVRQAPGQGLEWMGEIYPRGGNTYYNEKFKGRVTMTTDTSTSTAYMELRSLRSDDTAVYYCARENGNYDPLFAYWGQGTLVTVSS VL: DIQMTQSPSSLSASVGDRVTITCKASQDINKYIAWYQQKPGKAPKLLIYYTSTLQPGVPSRFSGSGSGTDFTFTISSLQPEDIATYYCLQYYNLWTFGGGTKVEIK | 412000 | 0.009321
humanized 752-1 IgG4 (S108P) prototype #2: humanized 752 antibody, 752_hVH-1 (SEQ ID NO: 124) and 752_hVL-2 (SEQ ID NO: 119), human IgG4 (S108P) (antibody, V domains shown, human IgG4 S108P constant region) VH: QVQLVQSGAEVKKPGASVKVSCKASGYTFTSCGISWVRQAPGQGLEWMGEIYPRGGNTYYNEKFKGRVTMTTDTSTSTAYMELRSLRSDDTAVYYCARENGNYDPLFAYWGQGTLVTVSS VL: DIQMTQSPSSLSASVGDRVTITCKASQDINKYIAWYQQKPGKAPKLLIHYTSTLQPGVPSRFSGSGSGTDFTFTISSLQPEDIATYYCLQYYNLWTFGGGTKVEIK | 1.13e+06 | 0.01521
humanized 752-1 IgG4 (S108P) prototype #3: humanized 752 antibody, 752_hVH-2 (SEQ ID NO: 129) and 752_hVL-1 (SEQ ID NO: 114), human IgG4 (S108P) (antibody, V domains shown, human IgG4 S108P constant region) VH: QVQLQQSGTGLARPGASVKLSCKASGYTFTSCGISWVTQRAGQGLEWIGEIYPRGGNTYYNEKFKGKATLTADKSSSSAYMELRGLTAEDSAVYFCARENGNYDPLFAYWGQGTTLTVSS VL: DIQMTQSPSSLSASVGDRVTITCKASQDINKYIAWYQQKPGKAPKLLIYYTSTLQPGVPSRFSGSGSGTDFTFTISSLQPEDIATYYCLQYYNLWTFGGGTKVEIK | 2.22e+06 | 0.004691
humanized 752-1 IgG4 (S108P) prototype #4: humanized 752 antibody, 752_hVH-2 (SEQ ID NO: 129) and 752_hVL-2 (SEQ ID NO: 119), human IgG4 (S108P) (antibody, V domains shown) VH: QVQLQQSGTGLARPGASVKLSCKASGYTFTSCGISWVTQRAGQGLEWIGEIYPRGGNTYYNEKFKGKATLTADKSSSSAYMELRGLTAEDSAVYFCARENGNYDPLFAYWGQGTTLTVSS VL: DIQMTQSPSSLSASVGDRVTITCKASQDINKYIAWYQQKPGKAPKLLIHYTSTLQPGVPSRFSGSGSGTDFTFTISSLQPEDIATYYCLQYYNLWTFGGGTKVEIK | 2.5e+06 | 0.006114

target: T1, Human TMPRSS2 recombinant protein, extracellular region (N-terminal His tag, C-terminal Strep-tag II) (human, UniProt O15393 106-492); assay: SPR (BIACore); conditions: not given
T1 construct: also called Human TMPRSS2 recombinant proteins; extracellular region of human TMPRSS2
T1 sequence (O15393 other isoform, or with tags, fused parts or gaps limits assumed): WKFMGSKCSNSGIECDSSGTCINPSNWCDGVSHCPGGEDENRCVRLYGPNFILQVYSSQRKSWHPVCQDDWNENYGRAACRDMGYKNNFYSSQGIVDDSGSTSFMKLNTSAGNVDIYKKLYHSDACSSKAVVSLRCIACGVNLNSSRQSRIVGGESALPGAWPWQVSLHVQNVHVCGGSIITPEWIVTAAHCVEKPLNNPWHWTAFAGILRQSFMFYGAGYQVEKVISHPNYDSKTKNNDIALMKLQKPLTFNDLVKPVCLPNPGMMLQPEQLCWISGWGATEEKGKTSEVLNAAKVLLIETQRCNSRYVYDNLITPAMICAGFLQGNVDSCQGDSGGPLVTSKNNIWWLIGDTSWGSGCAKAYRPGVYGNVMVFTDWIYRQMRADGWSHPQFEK

Molecule | Kd [nM] | koff [s⁻¹] | kon [M⁻¹ s⁻¹]
humanized 752-1 IgG4 (S108P) prototype #1 (antibody, V domains shown, also called humanized #1; hu #1) VH: QVQLVQSGAEVKKPGASVKVSCKASGYTFTSCGISWVRQAPGQGLEWMGEIYPRGGNTYYNEKFKGRVTMTTDTSTSTAYMELRSLRSDDTAVYYCARENGNYDPLFAYWGQGTLVTVSS VL: DIQMTQSPSSLSASVGDRVTITCKASQDINKYIAWYQQKPGKAPKLLIYYTSTLQPGVPSRFSGSGSGTDFTFTISSLQPEDIATYYCLQYYNLWTFGGGTKVEIK | 22.6 | 0.00932 | 412000
humanized 752-1 IgG4 (S108P) prototype #2 (antibody, V domains shown, also called humanized #2; hu #2) VH: QVQLVQSGAEVKKPGASVKVSCKASGYTFTSCGISWVRQAPGQGLEWMGEIYPRGGNTYYNEKFKGRVTMTTDTSTSTAYMELRSLRSDDTAVYYCARENGNYDPLFAYWGQGTLVTVSS VL: DIQMTQSPSSLSASVGDRVTITCKASQDINKYIAWYQQKPGKAPKLLIHYTSTLQPGVPSRFSGSGSGTDFTFTISSLQPEDIATYYCLQYYNLWTFGGGTKVEIK | 13.4 | 0.0152 | 1.13e+06
humanized 752-1 IgG4 (S108P) prototype #3 (antibody, V domains shown, also called humanized #3; hu #3) VH: QVQLQQSGTGLARPGASVKLSCKASGYTFTSCGISWVTQRAGQGLEWIGEIYPRGGNTYYNEKFKGKATLTADKSSSSAYMELRGLTAEDSAVYFCARENGNYDPLFAYWGQGTTLTVSS VL: DIQMTQSPSSLSASVGDRVTITCKASQDINKYIAWYQQKPGKAPKLLIYYTSTLQPGVPSRFSGSGSGTDFTFTISSLQPEDIATYYCLQYYNLWTFGGGTKVEIK | 2.11 | 0.00469 | 2.22e+06
recombinant 2228-15 mIgG (antibody, V domains shown) VH: QVQLQQSGPELVKPGTSVKISCKASGYTFTDYYINWVKQRPGQGLEWIGWIFPGSGSSYYNAIFKGKATLTVDTSSNTAHMSLSSLTSDDSAVYFCARGDFGNFGGFFTYWGQGTLVTVSA VL: DVVVTQSPASLAVSLGQRATISCRASKSVSTSGYSFMHWYQQKPGQPPKLLIYLASNLESGVPARFSGSGSGTDFILNIHPVEEEDAATYYCQHSRELPLTFGAGTKLELK | 3.72 | – | –

target: T2, Human TMPRSS2 expressed on cells (human, UniProt O15393 1-492); assay: not given; conditions: not given
T2 construct: also called TMPRSS2 expressing cells; Daudi-TMPRSS2 transfectant
T2 sequence (O15393 whole entry): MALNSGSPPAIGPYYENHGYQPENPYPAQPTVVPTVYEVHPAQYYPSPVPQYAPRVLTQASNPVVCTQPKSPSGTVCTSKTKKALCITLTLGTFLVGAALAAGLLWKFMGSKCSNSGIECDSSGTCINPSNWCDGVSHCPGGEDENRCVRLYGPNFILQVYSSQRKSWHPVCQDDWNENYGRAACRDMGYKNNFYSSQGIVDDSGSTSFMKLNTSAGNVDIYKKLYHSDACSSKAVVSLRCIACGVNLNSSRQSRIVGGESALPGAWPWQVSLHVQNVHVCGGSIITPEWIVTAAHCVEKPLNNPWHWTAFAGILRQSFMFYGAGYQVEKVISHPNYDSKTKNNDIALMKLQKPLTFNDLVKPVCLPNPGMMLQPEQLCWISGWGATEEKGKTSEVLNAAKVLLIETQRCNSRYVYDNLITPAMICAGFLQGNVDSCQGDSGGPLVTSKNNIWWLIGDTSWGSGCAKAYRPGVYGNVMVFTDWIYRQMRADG

Molecule | APC median at 3 µg/ml
752_1 human IgG4 chimeric antibody (antibody, V domains shown) VH: QVQLQQSGAELARPGASVKLSCKASGYTFTSCGISWVKQRTGQGLEWIGEIYPRGGNTYYNEKFKGKATLTADKSSSTAYMELRSLTSEDSAVYFCARENGNYDPLFAYWGQGTLVTVSA VL: DIQMTQSPSSLSASLGGKVTITCKASQDINKYIAWYQHKPGKGPRLLIHYTSTLQPGIPSRFSGSGSGRDYSFSIYNLEPEDIATYYCLQYYNLWTFGGGTKLEIK | 2040
humanized 752-1 IgG4 (S108P) prototype #1 (antibody, V domains shown, also called humanized #1; hu #1) VH: QVQLVQSGAEVKKPGASVKVSCKASGYTFTSCGISWVRQAPGQGLEWMGEIYPRGGNTYYNEKFKGRVTMTTDTSTSTAYMELRSLRSDDTAVYYCARENGNYDPLFAYWGQGTLVTVSS VL: DIQMTQSPSSLSASVGDRVTITCKASQDINKYIAWYQQKPGKAPKLLIYYTSTLQPGVPSRFSGSGSGTDFTFTISSLQPEDIATYYCLQYYNLWTFGGGTKVEIK | 1450
humanized 752-1 IgG4 (S108P) prototype #2 (antibody, V domains shown, also called humanized #2; hu #2) VH: QVQLVQSGAEVKKPGASVKVSCKASGYTFTSCGISWVRQAPGQGLEWMGEIYPRGGNTYYNEKFKGRVTMTTDTSTSTAYMELRSLRSDDTAVYYCARENGNYDPLFAYWGQGTLVTVSS VL: DIQMTQSPSSLSASVGDRVTITCKASQDINKYIAWYQQKPGKAPKLLIHYTSTLQPGVPSRFSGSGSGTDFTFTISSLQPEDIATYYCLQYYNLWTFGGGTKVEIK | 1410
humanized 752-1 IgG4 (S108P) prototype #3 (antibody, V domains shown, also called humanized #3; hu #3) VH: QVQLQQSGTGLARPGASVKLSCKASGYTFTSCGISWVTQRAGQGLEWIGEIYPRGGNTYYNEKFKGKATLTADKSSSSAYMELRGLTAEDSAVYFCARENGNYDPLFAYWGQGTTLTVSS VL: DIQMTQSPSSLSASVGDRVTITCKASQDINKYIAWYQQKPGKAPKLLIYYTSTLQPGVPSRFSGSGSGTDFTFTISSLQPEDIATYYCLQYYNLWTFGGGTKVEIK | 1560
2228_15 human IgG4 chimeric antibody (antibody, V domains shown) VH: QVQLQQSGPELVKPGTSVKISCKASGYTFTDYYINWVKQRPGQGLEWIGWIFPGSGSSYYNAIFKGKATLTVDTSSNTAHMSLSSLTSDDSAVYFCARGDFGNFGGFFTYWGQGTLVTVSA VL: DVVVTQSPASLAVSLGQRATISCRASKSVSTSGYSFMHWYQQKPGQPPKLLIYLASNLESGVPARFSGSGSGTDFILNIHPVEEEDAATYYCQHSRELPLTFGAGTKLELK | 2370
humanized 2228-15 IgG4 (S108P) prototype #2 (antibody, V domains shown, also called hu #2) VH: QVQLVQSGAEVKKPGASVKVSCKASGYTFTDYYINWVRQAPGQGLEWMGWIFPGSGSSYYNAIFKGRVTMTRDTSISTAYMELSRLRSDDTAVYYCARGDFGNFGGFFTYWGQGTLVTVSS VL: DIVMTQSPDSLAVSLGERATINCRASKSVSTSGYSFMHWYQQKPGQPPKLLIYLASNLESGVPDRFSGSGSGTDFTLTIRPLQAEDVAVYYCQHSRELPLTFGQGTKLEIK | 2540
